Experimental data as given in patent US20090042291A1 (published 2009).

Tests used:
[1] = biological target: T1, human FcγRIIb on cells (HEK293T cells transfected with human FcγRIIb cDNA; primary human B cells) (human, UniProt P31994 43-310); assay: flow cytometry on HEK293T cells transfected with human FcγRIIb, PE anti-human Fab detection
T1 construct: whole, on cells; also called CD32b
T1 sequence (looked up): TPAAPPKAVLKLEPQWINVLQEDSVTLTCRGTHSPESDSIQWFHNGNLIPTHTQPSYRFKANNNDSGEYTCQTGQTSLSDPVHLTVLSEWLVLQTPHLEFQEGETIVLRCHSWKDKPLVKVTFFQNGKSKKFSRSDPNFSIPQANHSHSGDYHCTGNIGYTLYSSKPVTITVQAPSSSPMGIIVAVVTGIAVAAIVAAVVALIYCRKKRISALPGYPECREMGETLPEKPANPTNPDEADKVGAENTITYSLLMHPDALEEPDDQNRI

[2] = biological target: T2, human FcγRIIb receptor protein (R&D Systems) (human, UniProt P31994 46-217, limits assumed); assay: Biacore SPR
T2 construct: Bought
T2 sequence (looked up): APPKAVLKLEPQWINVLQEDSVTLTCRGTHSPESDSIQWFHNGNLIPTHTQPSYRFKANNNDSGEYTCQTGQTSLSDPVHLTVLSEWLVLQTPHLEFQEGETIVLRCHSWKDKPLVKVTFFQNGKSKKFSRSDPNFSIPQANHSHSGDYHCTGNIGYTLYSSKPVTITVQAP

B1: anti-CD19 HuAM4G7 IgG1 S267E/L328F (antibody)
chain 1: not shown
chain 2: DIVMTQSPATLSLSPGERATLSCRSSKSLQNVNGNTYLYWFQQKPGQSPQLLIYRMSNLNSGVPDRFSGSGSGTEFTLTISSLEPEDFAVYYCMQHLEYPITFGAGTKLEIKRTVAAPSVFIFPPSDEQLKSGTASVVCLLNNFYPREAKVQWKVDNALQSGNSQESVTEQDSKDSTYSLSSTLTLSKADYEKHKVYACEVTHQGLSSPVTKSFNRGEC
EC50 fold relative to WT IgG1 [1]: ~320 fold

B2: anti-CD19 HuAM4G7 IgG1 S267A (antibody)
chain 1: not shown
chain 2: B1 chain 2
Kd [2]: 0.408 µM
fold relative to native IgG1 [2]: 3.6 fold

B3: anti-CD19 HuAM4G7 IgG1 S267E (antibody)
chain 1: not shown
chain 2: B1 chain 2
Kd [2]: 0.0719 µM
fold relative to native IgG1 [2]: 20.4 fold
